Experimental findings from article PMC5489476, “A thermophilic cell-free cascade enzymatic reaction for acetoin synthesis from pyruvate” (Scientific Reports, 2017) are described below.

Broadly, the Km is the substrate concentration at which the rate is half of its maximum. One may read the Vmax as the rate approached at saturating substrate.

For one series, the target named is T1, coAHASL2 (Caldicellulosiruptor owensensis, UniProt E4Q4G3).
T1 construct: gene Calow_0543; catalytic subunit alone, EC 2.2.1.6
T1 sequence (E4Q4G3 1-552): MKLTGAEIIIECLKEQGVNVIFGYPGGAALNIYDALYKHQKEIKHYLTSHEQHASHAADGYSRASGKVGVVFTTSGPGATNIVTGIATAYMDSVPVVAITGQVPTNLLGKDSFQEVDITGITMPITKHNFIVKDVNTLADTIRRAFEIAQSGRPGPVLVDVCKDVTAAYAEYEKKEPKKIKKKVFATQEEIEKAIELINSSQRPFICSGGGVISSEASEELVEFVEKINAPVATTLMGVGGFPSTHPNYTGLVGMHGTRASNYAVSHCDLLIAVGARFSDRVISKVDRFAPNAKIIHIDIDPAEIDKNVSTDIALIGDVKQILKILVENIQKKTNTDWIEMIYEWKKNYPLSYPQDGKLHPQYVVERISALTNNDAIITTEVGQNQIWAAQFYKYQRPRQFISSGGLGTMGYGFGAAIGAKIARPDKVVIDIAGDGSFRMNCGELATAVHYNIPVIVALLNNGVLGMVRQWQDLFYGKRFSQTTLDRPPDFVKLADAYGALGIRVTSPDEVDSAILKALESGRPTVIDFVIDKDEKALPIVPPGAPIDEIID
In words: colorimetric acetoin assay; activity with […] FAD. To be noted: pyruvate, ThDP, Mg2+; 65 °C, Tris pH 6.5. The format is biochemical.

The target in the next series is T2, coAHASL1 (Caldicellulosiruptor owensensis, UniProt E4Q3I4).
T2 construct: gene Calow_0356; catalytic subunit alone, EC 2.2.1.6
T2 sequence (E4Q3I4 1-536): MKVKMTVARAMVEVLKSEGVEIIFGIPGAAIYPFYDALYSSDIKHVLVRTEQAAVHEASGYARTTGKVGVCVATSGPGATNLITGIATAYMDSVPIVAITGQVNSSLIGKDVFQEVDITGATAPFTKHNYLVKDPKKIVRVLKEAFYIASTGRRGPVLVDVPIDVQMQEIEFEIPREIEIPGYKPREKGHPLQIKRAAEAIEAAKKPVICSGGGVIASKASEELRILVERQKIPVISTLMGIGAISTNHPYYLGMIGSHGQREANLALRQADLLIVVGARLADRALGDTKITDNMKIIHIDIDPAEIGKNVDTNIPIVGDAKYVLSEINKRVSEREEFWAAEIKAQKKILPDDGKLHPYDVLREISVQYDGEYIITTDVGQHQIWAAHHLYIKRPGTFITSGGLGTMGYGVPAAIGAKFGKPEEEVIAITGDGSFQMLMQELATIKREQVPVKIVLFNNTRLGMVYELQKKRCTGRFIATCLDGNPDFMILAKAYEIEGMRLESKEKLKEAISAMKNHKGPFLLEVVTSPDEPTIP
Kind of series: colorimetric acetoin assay; activity with […] FAD. The format is biochemical. The note with it: pyruvate, ThDP, Mg2+; 65 °C, Tris pH 6.5.

Substrate in the series “purified protein”: CC(=O)C(=O)O
Kind of series: purified protein. The series is classed as biochemical, Caldicellulosiruptor owensensis. To be noted: ThDP, FAD, Mg2+, catalytic subunit alone.

Where [1] appears, read: 70 °C, pH 6.5 (citrate-phosphate).

Regarding `Cc1cc2nc3c(=O)[nH]c(=O)nc-3n(C[C@H](O)[C@H](O)[C@H](O)COP(=O)(O)OP(=O)(O)OC[C@H]3O[C@@H](n4cnc5c(N)ncnc54)[C@H](O)[C@@H]3O)c2cc1C` [FAD], the activity enhancement entry at coAHASL2 was “concentration-dependent enhancements of both coAHASL1 and coAHASL2 were observed upon the addition of FAD”; on coAHASL1, “concentration-dependent enhancements of both coAHASL1 and coAHASL2 were observed upon the addition of FAD”.

B1: coAHASL1 (Caldicellulosiruptor owensensis OL) (protein)
chain: MKVKMTVARAMVEVLKSEGVEIIFGIPGAAIYPFYDALYSSDIKHVLVRTEQAAVHEASGYARTTGKVGVCVATSGPGATNLITGIATAYMDSVPIVAITGQVNSSLIGKDVFQEVDITGATAPFTKHNYLVKDPKKIVRVLKEAFYIASTGRRGPVLVDVPIDVQMQEIEFEIPREIEIPGYKPREKGHPLQIKRAAEAIEAAKKPVICSGGGVIASKASEELRILVERQKIPVISTLMGIGAISTNHPYYLGMIGSHGQREANLALRQADLLIVVGARLADRALGDTKITDNMKIIHIDIDPAEIGKNVDTNIPIVGDAKYVLSEINKRVSEREEFWAAEIKAQKKILPDDGKLHPYDVLREISVQYDGEYIITTDVGQHQIWAAHHLYIKRPGTFITSGGLGTMGYGVPAAIGAKFGKPEEEVIAITGDGSFQMLMQELATIKREQVPVKIVLFNNTRLGMVYELQKKRCTGRFIATCLDGNPDFMILAKAYEIEGMRLESKEKLKEAISAMKNHKGPFLLEVVTSPDEPTIP
notes: catalytic subunit alone, EC 2.2.1.6
Take B1: in “purified protein” (65 °C, pH 6.5 (Tris)), the Km is 71.83 ± 4.63 mM and the Vmax was 3.7 µmol/min/mg.

B2: coAHASL2 (Caldicellulosiruptor owensensis OL) (protein)
chain: MKLTGAEIIIECLKEQGVNVIFGYPGGAALNIYDALYKHQKEIKHYLTSHEQHASHAADGYSRASGKVGVVFTTSGPGATNIVTGIATAYMDSVPVVAITGQVPTNLLGKDSFQEVDITGITMPITKHNFIVKDVNTLADTIRRAFEIAQSGRPGPVLVDVCKDVTAAYAEYEKKEPKKIKKKVFATQEEIEKAIELINSSQRPFICSGGGVISSEASEELVEFVEKINAPVATTLMGVGGFPSTHPNYTGLVGMHGTRASNYAVSHCDLLIAVGARFSDRVISKVDRFAPNAKIIHIDIDPAEIDKNVSTDIALIGDVKQILKILVENIQKKTNTDWIEMIYEWKKNYPLSYPQDGKLHPQYVVERISALTNNDAIITTEVGQNQIWAAQFYKYQRPRQFISSGGLGTMGYGFGAAIGAKIARPDKVVIDIAGDGSFRMNCGELATAVHYNIPVIVALLNNGVLGMVRQWQDLFYGKRFSQTTLDRPPDFVKLADAYGALGIRVTSPDEVDSAILKALESGRPTVIDFVIDKDEKALPIVPPGAPIDEIID
notes: as for B1
Consider B2, for which, in the series “purified protein” (setting [1]), the Km is listed as 53.78 ± 2.68 mM and the Vmax came out at 0.7 µmol/min/mg.
